The target in experiment [1] is T1, 4H492-bN.
T1 chain: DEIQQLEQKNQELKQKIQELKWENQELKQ
Nature of the experiment: two-hybrid library CCNG1.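 Also: natural log of median RNA to DNA barcode read ratio; higher means stronger binding.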

Experiment [2] concerns the target T2, 4H741-bN.
T2 chain: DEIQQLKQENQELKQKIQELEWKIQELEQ
Nature of the experiment: two-hybrid library CCNG1.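 Also: natural log of median RNA to DNA barcode read ratio; higher means stronger binding.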

Experiment [3] concerns the target T3, 4H40-bN.
T3 chain: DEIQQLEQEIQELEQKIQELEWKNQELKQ
As to the kind of experiment: two-hybrid library CCNG1.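 Also: natural log of median RNA to DNA barcode read ratio; higher means stronger binding.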

Experiment [4] deals with T4, 4H348-bN.
T4 chain: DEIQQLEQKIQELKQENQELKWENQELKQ
Nature of the experiment: two-hybrid library CCNG1.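 Also: natural log of median RNA to DNA barcode read ratio; higher means stronger binding.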

For experiment [5], the target named is T5, O13-bS.
T5 chain: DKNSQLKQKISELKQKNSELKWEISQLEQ
Nature of the experiment: two-hybrid library CCNG1.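 Also: natural log of median RNA to DNA barcode read ratio; higher means stronger binding.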

The target in experiment [6] is T6, 4H3277-bN.
T6 chain: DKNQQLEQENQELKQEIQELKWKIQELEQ
Nature of the experiment: two-hybrid library CCNG1.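 Also: natural log of median RNA to DNA barcode read ratio; higher means stronger binding.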

For experiment [7], the target named is T7, 4H477-bN.
T7 chain: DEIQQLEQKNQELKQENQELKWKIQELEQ
Nature of the experiment: two-hybrid library CCNG1.

Experiment [8] addresses T8, 4H319-bN.
T8 chain: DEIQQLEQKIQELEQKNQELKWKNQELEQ
Nature of the experiment: two-hybrid library CCNG1.

The target of experiment [9] is T9, N6-AA.
T9 chain: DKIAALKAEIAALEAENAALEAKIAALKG
Nature of the experiment: two-hybrid library CCmax.

The target in experiment [10] is T10, O6-bS.
T10 chain: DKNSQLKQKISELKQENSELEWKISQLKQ
As to the kind of experiment: two-hybrid library CCNG1.

The target of experiment [11] is T11, O15-bS.
T11 chain: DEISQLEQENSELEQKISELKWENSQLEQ
As to the kind of experiment: two-hybrid library CCNG1.

Experiment [12] deals with T12, O16-bS.
T12 chain: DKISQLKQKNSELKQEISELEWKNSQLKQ
Nature of the experiment: two-hybrid library CCNG1.

In experiment [13] the target is T13, O9-bS.
T13 chain: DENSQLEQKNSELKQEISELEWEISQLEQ
Nature of the experiment: two-hybrid library CCNG1.

Experiment [14] has as its target T14, O7-bS.
T14 chain: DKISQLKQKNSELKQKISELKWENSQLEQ
As to the kind of experiment: two-hybrid library CCNG1.

Experiment [15] concerns the target T15, O3-bS.
T15 chain: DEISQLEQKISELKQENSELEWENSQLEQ
Nature of the experiment: two-hybrid library CCNG1.

Experiment [16] addresses T16, O5-bS.
T16 chain: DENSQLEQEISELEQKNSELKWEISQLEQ
As to the kind of experiment: two-hybrid library CCNG1.

The target of experiment [17] is T17, O2-bS.
T17 chain: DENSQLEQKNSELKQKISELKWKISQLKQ
As to the kind of experiment: two-hybrid library CCNG1.

Experiment [18] addresses T18, O8-bS.
T18 chain: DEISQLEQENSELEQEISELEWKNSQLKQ
As to the kind of experiment: two-hybrid library CCNG1.

For experiment [19], the target named is T19, O4-bS.
T19 chain: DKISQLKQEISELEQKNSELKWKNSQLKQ
Nature of the experiment: two-hybrid library CCNG1.

The target in experiment [20] is T20, 4H2604-AA.
T20 chain: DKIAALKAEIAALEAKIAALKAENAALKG
As to the kind of experiment: two-hybrid library CCmax. Particulars: mean of both orientations.

For experiment [21], the target named is T21, 4H3449-AA.
T21 chain: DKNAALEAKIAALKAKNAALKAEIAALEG
Nature of the experiment: two-hybrid library CCmax. The following applies: mean of both orientations.

Experiment [22] concerns the target T22, 4H3094-AA.
T22 chain: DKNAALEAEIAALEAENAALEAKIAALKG
Nature of the experiment: two-hybrid library CCmax. The following applies: mean of both orientations.

Experiment [23] deals with T23, 4H1449-AA.
T23 chain: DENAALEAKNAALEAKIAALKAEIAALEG
Nature of the experiment: two-hybrid library CCmax.

The target in experiment [24] is T24, 4H3049-AA.
T24 chain: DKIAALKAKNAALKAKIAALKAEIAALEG
Nature of the experiment: two-hybrid library CCmax. The following applies: mean of both orientations.

In experiment [25] the target is T25, 4H380-AA.
T25 chain: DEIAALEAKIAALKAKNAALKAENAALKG
As to the kind of experiment: two-hybrid library CCmax. The following applies: mean of both orientations.

In experiment [26] the target is T26, 4H446-AA.
T26 chain: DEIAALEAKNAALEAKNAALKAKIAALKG
Nature of the experiment: two-hybrid library CCmax. The following applies: mean of both orientations.

In experiment [27] the target is T27, 4H63-AA.
T27 chain: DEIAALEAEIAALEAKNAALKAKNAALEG
As to the kind of experiment: two-hybrid library CCmax. The following applies: mean of both orientations.

Experiment [28] addresses T28, 4H2760-AA.
T28 chain: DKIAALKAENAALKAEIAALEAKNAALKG
As to the kind of experiment: two-hybrid library CCmax. The following applies: mean of both orientations.

For experiment [29], the target named is T29, 4H3619-AA.
T29 chain: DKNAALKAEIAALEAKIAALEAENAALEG
Nature of the experiment: two-hybrid library CCmax. The following applies: mean of both orientations.

For experiment [30], the target named is T30, 4H2961-AA.
T30 chain: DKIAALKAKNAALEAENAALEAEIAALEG
As to the kind of experiment: two-hybrid library CCmax. The following applies: mean of both orientations.

The target in experiment [31] is T31, 4H3629-AA.
T31 chain: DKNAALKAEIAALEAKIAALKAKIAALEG
As to the kind of experiment: two-hybrid library CCmax. The following applies: mean of both orientations.

Experiment [32] concerns the target T32, 4H324-AA.
T32 chain: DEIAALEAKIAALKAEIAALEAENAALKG
As to the kind of experiment: two-hybrid library CCmax. The following applies: mean of both orientations.

The target of experiment [33] is T33, 4H3777-AA.
T33 chain: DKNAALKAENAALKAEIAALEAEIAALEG
As to the kind of experiment: two-hybrid library CCmax. The following applies: mean of both orientations.

Experiment [34] has as its target T34, 4H2580-AA.
T34 chain: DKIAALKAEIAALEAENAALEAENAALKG
Nature of the experiment: two-hybrid library CCmax. Particulars: mean of both orientations.

Experiment [35] addresses T35, 4H2621-AA.
T35 chain: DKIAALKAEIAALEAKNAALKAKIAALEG
Nature of the experiment: two-hybrid library CCmax. The following applies: mean of both orientations.

For experiment [36], the target named is T36, 4H432-AA.
T36 chain: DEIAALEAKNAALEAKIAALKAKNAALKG
As to the kind of experiment: two-hybrid library CCmax. The following applies: mean of both orientations.

In experiment [37] the target is T37, 4H1593-AA.
T37 chain: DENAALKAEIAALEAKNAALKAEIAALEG
Nature of the experiment: two-hybrid library CCmax. Particulars: mean of both orientations.

For experiment [38], the target named is T38, 4H3915-AA.
T38 chain: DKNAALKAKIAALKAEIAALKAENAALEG
As to the kind of experiment: two-hybrid library CCmax. The following applies: mean of both orientations.

Experiment [39] has as its target T39, 4H3974-AA.
T39 chain: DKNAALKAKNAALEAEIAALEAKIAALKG
Nature of the experiment: two-hybrid library CCmax. The following applies: mean of both orientations.

Experiment [40] addresses T40, 4H1878-AA.
T40 chain: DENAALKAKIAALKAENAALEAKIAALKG
As to the kind of experiment: two-hybrid library CCmax. The following applies: mean of both orientations.

Experiment [41] addresses T41, 4H2774-AA.
T41 chain: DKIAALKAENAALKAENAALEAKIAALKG
Nature of the experiment: two-hybrid library CCmax. Particulars: mean of both orientations.

Experiment [42] deals with T42, 4H2947-AA.
T42 chain: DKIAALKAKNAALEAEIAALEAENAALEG
As to the kind of experiment: two-hybrid library CCmax. The following applies: mean of both orientations.

Experiment [43] has as its target T43, 4H341-AA.
T43 chain: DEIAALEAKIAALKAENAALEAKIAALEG
As to the kind of experiment: two-hybrid library CCmax.

For experiment [44], the target named is T44, 4H249-AA.
T44 chain: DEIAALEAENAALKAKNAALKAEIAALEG
As to the kind of experiment: two-hybrid library CCmax. Particulars: mean of both orientations.

The target in experiment [45] is T45, 4H235-AA.
T45 chain: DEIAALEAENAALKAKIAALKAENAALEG
Nature of the experiment: two-hybrid library CCmax. The following applies: mean of both orientations.

Experiment [46] addresses T46, 4H2903-AA.
T46 chain: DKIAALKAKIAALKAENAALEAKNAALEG
As to the kind of experiment: two-hybrid library CCmax. The following applies: mean of both orientations.

Experiment [47] has as its target T47, P9SHb.
T47 chain: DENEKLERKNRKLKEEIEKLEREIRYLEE
As to the kind of experiment: two-hybrid library CCNG1.

In experiment [48] the target is T48, P8SHb.
T48 chain: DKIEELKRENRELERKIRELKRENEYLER
Nature of the experiment: two-hybrid library CCNG1.

The target of experiment [49] is T49, P7SHb.
T49 chain: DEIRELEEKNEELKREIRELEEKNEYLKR
Nature of the experiment: two-hybrid library CCNG1.

In experiment [50] the target is T50, P5SHb.
T50 chain: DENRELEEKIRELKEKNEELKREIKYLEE
Nature of the experiment: two-hybrid library CCNG1.

The target of experiment [51] is T51, P4SHb.
T51 chain: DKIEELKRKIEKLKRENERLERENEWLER
Nature of the experiment: two-hybrid library CCNG1.

Experiment [52] concerns the target T52, P6SHb.
T52 chain: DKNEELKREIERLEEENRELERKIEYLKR
Nature of the experiment: two-hybrid library CCNG1.

In experiment [53] the target is T53, P3SHb.
T53 chain: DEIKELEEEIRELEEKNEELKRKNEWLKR
Nature of the experiment: two-hybrid library CCNG1.

As to DEIQQLEQKIQELEQKNQELKWKNQELEQ [4H319-bN], the interaction score in experiment [1] is -0.916; in [2], -0.781; in [3] it was 0.382; in [4], -1.38; in [5], -2.53; in experiment [6] it was -0.892. The interaction score is 0.197 in experiment [7] and -0.057 in [8].

As for DKIAALKAEIAALEAENAALEAKIAALKG [N6-AA], the interaction score in experiment [9] worked out at 1.66.

For DKNSQLKQKISELKQKNSELKWEISQLEQ [O13-bS], the interaction score in experiment [10] was -0.545; in experiment [5] it was -1.65; in [11] it was -2.27; in experiment [12], -1.78; in experiment [13], -1.08; in [14], -1.16. Moreover, the interaction score in experiment [15] was -1.55; in experiment [16], -2.23; in experiment [17] it was -0.819; in experiment [18], -1.08; in experiment [19] it was -2.17.

On to DENAALEAKNAALEAKIAALKAEIAALEG [4H1449-AA], for which the interaction score was -0.197 in experiment [20]; -1.65 in experiment [21]; -1.53 in [22]; -0.875 in [23]; -0.585 in [24]; -1.53 in experiment [25]. For the same molecule, the interaction score in experiment [26] is -1.39; in [27] it was -1.09; in [28] it was -1.16; in [29], -1.1; in experiment [30], -1.66; in experiment [31], -0.319. Moreover, the interaction score in experiment [32] was -0.72; in experiment [33], -0.635; in [34], -0.863; in [35], -0.636; in experiment [36] it was -1.57; in experiment [37], -1.66. In addition, the interaction score in [38] is -1.06; in [39], 2.16; in [40], -1.34; in [41], -1.47; in experiment [42], -1.1; in experiment [43] it was -1.74. In addition, the interaction score in experiment [44] is -1.66; in [45], -1.93; in [46], -1.54.

In the case of DEIKELEEEIRELEEKNEELKRKNEWLKR [P3SHb], the interaction score in experiment [47] was 0.0235; in experiment [48] it was -0.0984; in [49], 0.504; in experiment [50], 0.636; in experiment [51], 1.16; in [52] it was 0.81. In addition, in experiment [53], the interaction score worked out at 0.389.
